Measured values from patent US20230346916A1.

What was measured:
[1] = target: soluble human DPP4 (sDPP4) receptor (human) (UniProt P27487); assay: ELISA, RBD-Fc coated at 1 µg/ml, sDPP4 serially diluted
[2] = target: bat ACE2 (bACE2) receptor transiently expressed on 293T cells (bat)

Chain of soluble human DPP4 (sDPP4) receptor (human) (P27487 39-766 limits assumed): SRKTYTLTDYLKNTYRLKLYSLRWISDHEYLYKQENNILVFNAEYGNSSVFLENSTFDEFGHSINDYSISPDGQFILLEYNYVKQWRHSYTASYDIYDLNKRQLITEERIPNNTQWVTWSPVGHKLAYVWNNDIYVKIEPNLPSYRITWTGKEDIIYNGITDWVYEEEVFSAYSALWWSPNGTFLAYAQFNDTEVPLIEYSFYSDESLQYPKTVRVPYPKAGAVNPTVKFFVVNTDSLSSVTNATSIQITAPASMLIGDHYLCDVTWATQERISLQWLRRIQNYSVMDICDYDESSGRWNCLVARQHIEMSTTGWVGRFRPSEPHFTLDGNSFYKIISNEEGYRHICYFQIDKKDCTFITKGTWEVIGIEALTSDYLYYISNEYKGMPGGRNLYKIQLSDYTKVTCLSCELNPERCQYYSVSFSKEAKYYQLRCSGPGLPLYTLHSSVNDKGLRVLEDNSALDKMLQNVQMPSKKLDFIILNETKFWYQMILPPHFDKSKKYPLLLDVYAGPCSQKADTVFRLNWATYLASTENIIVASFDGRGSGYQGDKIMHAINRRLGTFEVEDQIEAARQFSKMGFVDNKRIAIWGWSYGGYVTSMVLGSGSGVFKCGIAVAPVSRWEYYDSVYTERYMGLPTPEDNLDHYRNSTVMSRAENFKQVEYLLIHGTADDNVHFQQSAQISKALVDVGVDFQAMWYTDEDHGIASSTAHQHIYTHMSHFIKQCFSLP

Row | Substance | EC50 [1] [µg/mL] | EC50 [2] [µg/mL]
1 | MERS-CoV RBD-Fc fusion protein (residues 377-588 of MERS-CoV S protein with a C-terminal hFc) (from UniProt K9N5Q8 377-588) | 0.92 | –
2 | SARS-CoV RBD-Fc fusion protein (residues 318-510 of SARS-CoV S protein with a C-terminal hFc) (from UniProt P59594 318-510) | – | 0.96
